These results are taken from patent US6645501B2, “Anti-pathogen system and methods of use thereof” (Washington University, priority 1997, dated 2003).

Test [1] concerns Jurkat T cells infected with the NLHX strain of HIV-I. Briefly: Cytotoxicity of TAT-Casp3 on HIV infected Jurkat cultures, exclusionary dye viability analysis. The test is classed as cell-based. An excerpt: To make this determination, Jurkat T cells were infected for 7-14 days with the NLHX strain of HIV-I and examined microscopically for HIV cytopathic effects. See Westervelt, P., et al., Identification of a determinant within the HIV-1 surface envelope glycoprotein critical for productive infection of cultured primary monocytes. Proc. Natl. Acad. Sci USA 88: 3097 (1991). At the start of each transduction experiment approximately 50% of the culture was HIV positive. HIV infected cultures were transduced for 16 hr with 100 nM TAT-Casp3WT or TATCasp3MUT protein and then assayed for cell viability (FIG. 13). […] In addition, we detected both the appearance of cells containing <2N DNA content and cells with condensed nuclei in TAT-Casp3 treated cells.
To determine if TAT-Casp3WT induced apoptosis was dependent on active HIV Protease in the infected cultures, HIV infected cultures were pretreated with 1 μg/ml Ritonavir prior to transduction with 100 nM TAT-Casp3WT protein (FIG. 5). […] In addition, the observed increased survival of Ritonavir treated cells is consistent with increased longevity of protease inhibitor treated HIV infected cells. See Coffin, J. M., et al. (supra).
The specific killing of HIV infected cells shown in FIG. 5 is explained in more detail as follows. Jurkat T cells were infected for 7-14 days with HIV strain NLHX, then transduced with TAT-Casp3WT (WT) or TAT-Casp3MUT (MUT) proteins for 16 hr and assayed for cell viability. […] Ctrl, control addition of PBS to cultures; abscissa, % viability of HIV positive cells in the population at start of transduction; error bars represent SD.
(§1) 1. […] See Lissy, N. A., et al. (supra). […] See Ezhevsky, S. A., et al. (supra). […] See Xiang, J., et al., (supra). […] See Xiang, J., et al., (supra). […] See Ezhevsky, S. A., et al. (supra).

The subject of test [2] is Jurkat T cells. Briefly: TUNEL assay for degraded genomic DNA in transduced Jurkat T cells. The class given is cell-based. As to the method:
(§2) Additionally, transduced cultures were tested for degraded genomic DNA by TUNEL assay. See Coates, P. J., Molecular methods for the identification of apoptosis in tissues. J. Histotechnology 17: 261 (1994). […] Activation of TAT-Casp3 was also assayed by its ability to cleave an artificial Caspase-3 substrate. […] See Xiang, J., et al., Bax-induced cell death may not require interleukin 1B-converting enzyme-like proteases. Proc. Natl. Acad. Sci. USA 93: 14550 (1996).
(§3) The HIV Protease activates TAT-Casp3WT protein shown in FIGS. 12A-B are explained in more detail as follows. FIG. 12A. […] Abscissa: TUNEL positive cells per high-powered microscopic field; Ctrl, control addition of PBS to cultures; error bars represent SD. FIG. 12B. […] Ctrl, control PBS addition; ocFAS crosslinking, positive control.
as §1

For test [3], the system named is caspase-3 activity (DEVD-AFC cleavage). Briefly: Caspase-3 enzyme assay, cleavage of DEVD-AFC by whole cell lysate of transduced Jurkat T cells. The test is classed as cell-based. As to conditions: 6 hr. The method, then: as §2, §3, §1
Test [4] relates to Jurkat T cells. Briefly: Cytotoxicity of TAT-Casp3 on uninfected Jurkat T cells, viability by Trypan Blue exclusion. Particulars: co-transduced with TAT-HIV Pr. As to the method: In addition, the ability of TAT-Casp3 protein to induce apoptosis in cells co-transduced with TAT-HIV Pr protein was tested. Jurkat T cells were treated with 100 nM TAT-Casp3WT or TATCasp3MUT proteins alone or in combination with 50 nM TAT-HIV Pr protein and assayed for cell viability 16 hr post-treatment (FIG. 11A). […] See Salvensen, G. S., et al., Henkart, P. A., Cohen, G. M., Woo, M., et al., Enari, M. et al., Liu, X., et al. (supra).
FIG. 11A Cultures of Jurkat T cells were transduced with combinations of TAT-Casp3WT (WT), TAT-Casp3MUT (MUT) and TAT-HIV Protease (Pr) proteins for 16 hr and analyzed for cell viability. […] FIG. 11B Cultures of Jurkat T cells were co-transduced with TAT-Casp3WT (WT), TAT-Casp3MUT (MUT) proteins in combination with TAT-HIV Pr (Pr) protein and analyzed for kinetics of cell viability as indicated.
1. Cell culture-p16(−) Jurkat T cells (ATCC) were grown as described. See Lissy, N. A., et al. (supra). For in vivo substrate cleavage, 1×10^6 cells were transduced with 100 nM TAT-p16, TAT-A-p16, TAT-Casp3MUT and/or 50 nM TAT-HIV Pr proteins for 1, 5 or 8 hr as indicated and analyzed by anti-p16 (Santa Cruz) or anti-Casp3 (Pharmingen) immunoblot analysis. See Ezhevsky, S. A., et al. (supra). For cytotoxicity of TAT-Casp3 on uninfected cells, 1×10^6 cells were transduced with 100 nM TAT-Casp3WT, TAT-Casp3MUT and/or 50 nM TAT-HIV Pr proteins for 16 hr and assayed for viability by Trypan Blue exclusion and/or genomic DNA damage by TUNEL assay (Trevigen). Number of TUNEL positive cells reported as per high-powered microscopic field with four fields per experiment averaged. TAT-Casp3 activity was measured by incubation of 20 μg of whole cell lysate with 50 μM DEVD-AFC and fluorescent AFC formation measured on a FL500 microplate fluorescence reader (Bio-Tek) as described. See Xiang, J., et al., (supra). Cells were preincubated with 1 μg/ml Ritonavir (Abbott Labs) for 1 hr prior to transduction. For cytotoxicity of TAT-Casp3 on infected cells, Jurkat cultures were infected with 100 ng p24 Ag equivalent NLHX HIV-I strain for 7-14 days, assayed microscopically for cytopathic effects, then replated at 1×10^6/ml and transduced with 100 nM of TAT-Casp3WT or TAT-Casp3MUT proteins for 16 hr followed by exclusionary dye viability analysis. Infected cells were pretreated with 1 μg/ml Ritonavir for 24 hr prior to transduction with TAT-Casp3WT protein. See Xiang, J., et al., (supra). For Flow Cytometry (FACS) analysis, fluorescein (FITC) conjugated TAT fusion proteins were added to Jurkat T cell culture media and 1×10^4 cells were analyzed by FACS as described. See Ezhevsky, S. A., et al. (supra).

In test [5] the test system is Jurkat T cells. In words: FACS and confocal analysis of FITC-labeled TAT fusion proteins added to Jurkat T cells. The test is classed as cell-based. As to conditions: for cells transduced: FITC-labeled protein added to media of Jurkat T cells. As to the method: To test the ability of TAT-Casp3 proteins to transduce into cells, TAT-Casp3 proteins were conjugated to fluorescein (FITC), then added directly to the media of Jurkat T cells and analyzed by Flow Cytometry (FACS) (FIGS. 9B-C). Both TAT-Casp3WT and TAT-Casp3MUT proteins rancidly transduced into ˜100% of cells, achieving maximum intracellular concentration in less than 20 min. In addition, based on the narrow peak width before and after addition of FITC labeled proteins, individual cells within the population contain near identical intracellular concentrations of TAT-Casp3-FITC protein. […] Thus, TAT-Casp3 proteins readily transduce into 100% of all cells inca rapid and concentration-dependent fashion.
The generation and transduction of TAT fusion proteins shown in FIGS. 9A-E are explained in more detail as follows: FIG. 9A. Diagram depicting HIV cleavage site sequences and domains of TAT fusion proteins. FIGS. 9B-D. FACS kinetic analysis of fluorescein (FITC) labeled TAT-Casp3WT, TAT-Casp3MUT and TAT-HIV Pr proteins added to cells at 0, 20 and 30 min. FIG. 9E. FACS dose analysis of 3, 6, and 12 nM TAT-Casp3WT-FITC protein added to cells at I hr post-addition. Note rapid, concentration-dependent transduction of all FITC labeled protein into ˜100% of cells and near identical intracellular concentration within the population as measured by FACS peak width of control vs. transduced cells.
as §1

The test system of test [6] is Jurkat T-cells infected by HIV. In words: Cleavage of transduced p16 fusion proteins in HIV-infected Jurkat T-cells, Western/immunoblot with anti-p16 antibody. The test is classed as cell-based. Particulars: after 4, 8 and 12 hours. The method, then: Purified p16 fusion proteins were individually transduced into Jurkat T-cells infected by HIV. Methods for infecting the Jurkat T-cells with HIV and transducing fusion proteins are described in examples, which follow. After 4, 8 and 12 hours, the cells are analyzed for cleavage of the fusion protein by Western/immunoblot analysis using a commercially available anti-P16 antibody (Santa Cruz). As a control, the p16 cDNA was fused to the pTAT vector described in Example 1 to produce the vector shown in FIG. 3D (no HIV protease cleavage site). That vector encoded a p16 fusion protein fused to TAT that was not cleaved in the infected cells.

For the next test, the target named is T1, HIV Protease (Human immunodeficiency virus type 1 group M subtype B, UniProt P04585).
T1 construct: PCR cloning the HIV Protease gene from HXB2R HIV strain; 6xHis (from the pTAT vector) (N); made in house; the purified protein was added to Jurkat T cells
In words: In vivo substrate cleavage by co-transduced TAT-HIV Pr in Jurkat T cells, immunoblot. As to conditions: 100 nM substrate, 50 nM TAT-HIV Pr, Jurkat T cells, immunoblot. The test is classed as cell-based. As to the method:
To assay for in vivo cleavage, p 16(−) Jurkat T cells were transduced with 100 nM TAT-Ap16 or control TAT-p16 protein (no HIV cleavage site) alone or in combination with 50 nM TATHIV Pr fusion protein for 5 hr and analyzed by anti-p16 immunoblot for in vivo cleavage at the HIV A proteolytic cleavage site (FIG. 10A). […] Size analysis of the cleaved TAT-A-p 16 protein was consistent with retention of the residual HIV half site present on the N′ terminus of p 16 (FIG. 10A, see lane 4 vs. 5).
Further, the TAT-Casp3MUT protein was transduced in combination with TAT-HIV Pr protein into cells (FIG. 10B).
The in vivo processing in co-transduced cells shown in FIGS. 10A and 10B is explained in more detail as follows. FIG. 10A. Cultures of p16(−) Jurkat T cells were transduced with TAT-p 16 or TAT-A-p 16 substrate proteins in combination with TATHIV Pr proteins for 5 hr and subjected to anti-p 16 immunoblot analysis. […] WCE, HepG2 whole cell lysate containing wild type endogenous p16; A-p16, cleaved TAT-A-16 product retaining the HIV half site on p16. FIG. 10B. Cultures of Jurkat T cells were transduced with TATCasp3MUT protein (TAT-“D” site-p 17 domain-“A” site-p12 domain) alone or in combination with TAT-HIV Pr (Pr) protein as indicated and immunoblotted with anti-Caspase-3 antibodies specific for the p17 domain. TAT-D-p17-A, cleaved product of TAT-Casp3 containing the N′ terminal HIV A half site.
as §1
On the technique in general: In western blotting, separated proteins are transferred to a membrane and probed.

Entries after “also recorded” stand apart in the source; their conditions may differ.

B1: TAT-Casp3WT: TAT-D site-p17-A site-p12 modified Caspase-3 fusion protein, Pro domain replaced by TAT transduction domain (protein)
chain: GRKKRRQRRRGYPYDVPDYACTERQANFLGKIWPGISLDNSYKMDYPEMGLCIIINNKNFHKSTGMTSRSGTDVDAANLRETFRNLKYEVRNKNDLTREEIVELMRDVSKEDHSKRSSFVCVLLSHGEEGIIFGTNGPVDLKKITNFFRGDRCRSLTGKPKLFIIQACRGTELDCGIETSQVSQNYPIVQNLQGVDDDMACHKIPVEADFLYAYSTAPGYYSWRNSKDGSWFIQSLCAMLKQYADKLEFMHILTRVNRKVATEFESFSFDATFHAKKQIPCIVSMLTKELYFYH
modifications: left off: small tags and cut ends
notes: TAT-D site-p17-A site-p12 modified Caspase-3 fusion protein, Pro domain replaced by TAT transduction domain
Consider B1, for which the “effect on viability of HIV positive cells” value in test [1] (100 nM, 16 hr, cultures approximately 50% HIV positive) is “dramatic loss of HIV positive cells; also recorded: efficiently kills a large percentage of HIV positive cells”. For the same molecule, in test [1] (HIV infected cultures), the “appearance of cells containing <2N DNA content and cells with condensed nuclei” value is “detected”. For the same molecule, the “TUNEL positive cells, protein transduced alone” value with Jurkat T cells [2] (100 nM TAT-Casp3 or 50 nM TAT-HIV Pr) is listed as “only background levels; also recorded: remained at background levels”. The “TUNEL positive cells, co-transduced with TAT-HIV Pr” value with Jurkat T cells [2] (100 nM plus 50 nM TAT-HIV Pr) is “marked increase; also recorded: specific TUNEL positive cells”. Also, in test [3] (100 nM plus 50 nM TAT-HIV Pr), the “caspase activity, co-transduced with TAT-HIV Pr” value was “marked increase in caspase activity that was greater than αFAS treatment; also recorded: specific activation of caspase-3 activity”. Also, the “caspase activity, protein transduced alone” value in test [3] is listed as “only background levels”. Besides, in the test on Jurkat T cells [4], the “appearance of cells containing <2N DNA content” value is reported as “detected”, the “earliest detection of cellular death post-transduction” value was determined as 4 h and the “kinetic analysis of cell death (shape of curve)” value is “linear killing curve”. In addition, the “dose analysis of protein transduction” value in the test on Jurkat T cells [5] (3, 6 and 12 nM, 1 hr post-addition, at equilibrium) is “concentration-dependency”. Besides, the “intracellular localisation by confocal microscopy” value in the test with Jurkat T cells [5] (FITC-labeled protein) was “both cytoplasmic and nuclear compartments”. Further, the cells transduced in the test with Jurkat T cells [5] was roughly 100%.

B2: TAT-p16: control TAT-p16 fusion protein with no HIV cleavage site (protein)
chain: GRKKRRQRRRGMEPAAGSSMEPSADWLATAAARGRVEEVRALLEAGALPNAPNSYGRRPIQVMMMGSARVAELLLLHGAEPNCADPATLTRPVHDAAREGFLDTLVVLHRAGARLDVRDAWGRLPVDLAEELGHRDVARYLRAAAGGTRGSNHARIDAAEGPSDIPD
modifications: left off: small tags and cut ends
notes: control TAT-p16 fusion protein with no HIV cleavage site
Consider B2, for which, in test [6], the “cleavage of the fusion protein in HIV-infected cells” value is reported as “not cleaved”. The cells transduced with Jurkat T cells [5] is 100%. Further, the “cleavage at the HIV cleavage site when co-transduced with TAT-HIV Pr” value in the test with HIV Protease is reported as “not cleaved”.
